“And” between values parts separate entries of the source, which are not always exact repeats. Equal values may be shown once.

As a reminder, the stoichiometry N is the number of molecules, sites or subunits per partner or assembly.

In assay [1] the target is Theileria parva schizont antigen Tp2, bacterially expressed recombinant protein with His-tag (Theileria parva (Muguga)). Kind of assay: SEC-MALS; apparent dimer fraction from preparative SEC; FPLC (Shimadzu) with Wyatt scattering and refractive index detectors. Background: SEC sorts molecules by how far they enter the pores of the column.
Assay [2] shares this target. As to the kind of experiment: SEC; preparative SEC (Generon ProteoSEC 3-70 kD) after affinity chromatography; 20 mM PO4, 250 mM NaCl, 0.02% NaN3, pH 7.5; apparent masses from elution times.

For the substance “Theileria parva schizont antigen Tp2, bacterially expressed recombinant protein with His-tag (natural protein)”, the stoichiometry N in assay [1] was 2; in assay [2], 4 and 2.

(Values after publication PMC8297500.)
